The values that follow come from patent US20170074883A1.

Assay [1] addresses CD38 on the surface of the HCL cell line JOK-1 and its derivatives (JOK-Empty, JOK-RhoH, JOK-CD38-WT) (human) (UniProt P28907). Briefly: flow cytometry, FITC-IB6 on JOK-Empty cells (RhoH not induced), mean of 4 experiments. On the technique in general: A flow cytometer gives signals particle by particle.
Assay [2] has the same target. Briefly: flow cytometry, FITC-IB6 on JOK-RhoH cells (RhoH induced, lower CD38 expression), mean of 4 experiments.

As to “FITC-conjugated version of the monoclonal antibody IB6 directed against CD38 (Miltenyi Biotec)”, the mean fluorescence intensity (after subtraction of isotype control) in assay [1] was 71.8; in assay [2], 19.7.
